# Laboratory results: publication PMC8809517, “Cofactor-independent RNA editing by a synthetic S-type PPR protein”
# T1: GFP-9S library array, motif 4 ND N98H;D124G (synthetic construct, N98H;D124G)
# T1 chain: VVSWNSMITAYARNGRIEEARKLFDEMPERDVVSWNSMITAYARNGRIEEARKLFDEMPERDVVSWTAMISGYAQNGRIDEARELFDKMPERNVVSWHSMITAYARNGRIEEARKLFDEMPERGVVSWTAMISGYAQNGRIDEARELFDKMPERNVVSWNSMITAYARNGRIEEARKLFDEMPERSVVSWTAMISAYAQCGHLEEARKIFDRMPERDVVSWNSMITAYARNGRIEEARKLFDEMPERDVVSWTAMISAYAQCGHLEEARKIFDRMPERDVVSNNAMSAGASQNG
# T2: GFP-9S library array, motif 4 ND N98T;D124E (synthetic construct, N98T;D124E)
# T2 chain: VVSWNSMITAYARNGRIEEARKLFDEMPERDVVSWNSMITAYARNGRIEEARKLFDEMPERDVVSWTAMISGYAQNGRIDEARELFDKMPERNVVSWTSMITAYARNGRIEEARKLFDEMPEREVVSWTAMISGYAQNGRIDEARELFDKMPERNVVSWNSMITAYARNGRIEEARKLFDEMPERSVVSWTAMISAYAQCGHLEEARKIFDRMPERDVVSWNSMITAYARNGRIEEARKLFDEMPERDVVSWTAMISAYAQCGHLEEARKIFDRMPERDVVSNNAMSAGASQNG
# T3: GFP-9S library array, motif 4 ND N98A (synthetic construct, N98A)
# T3 chain: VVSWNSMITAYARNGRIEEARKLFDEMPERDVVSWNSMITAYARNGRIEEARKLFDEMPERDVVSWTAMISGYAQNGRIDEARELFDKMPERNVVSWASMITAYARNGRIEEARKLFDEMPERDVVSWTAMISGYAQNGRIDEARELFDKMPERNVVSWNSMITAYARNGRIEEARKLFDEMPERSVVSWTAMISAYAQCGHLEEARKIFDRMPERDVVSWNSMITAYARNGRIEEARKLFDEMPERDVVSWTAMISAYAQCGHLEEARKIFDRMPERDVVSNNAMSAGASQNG
# T4: GFP-9S library array, motif 4 ND N98P;D124T (synthetic construct, N98P;D124T)
# T4 chain: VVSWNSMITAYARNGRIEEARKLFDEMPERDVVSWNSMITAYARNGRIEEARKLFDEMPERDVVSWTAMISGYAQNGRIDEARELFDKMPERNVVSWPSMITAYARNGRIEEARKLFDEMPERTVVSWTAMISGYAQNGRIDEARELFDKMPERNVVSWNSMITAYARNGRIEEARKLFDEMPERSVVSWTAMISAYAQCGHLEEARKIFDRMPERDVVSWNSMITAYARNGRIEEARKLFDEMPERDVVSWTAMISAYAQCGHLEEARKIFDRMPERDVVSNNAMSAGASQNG
# T5: GFP-9S library array, motif 4 ND N98D;D124H (synthetic construct, N98D;D124H)
# T5 chain: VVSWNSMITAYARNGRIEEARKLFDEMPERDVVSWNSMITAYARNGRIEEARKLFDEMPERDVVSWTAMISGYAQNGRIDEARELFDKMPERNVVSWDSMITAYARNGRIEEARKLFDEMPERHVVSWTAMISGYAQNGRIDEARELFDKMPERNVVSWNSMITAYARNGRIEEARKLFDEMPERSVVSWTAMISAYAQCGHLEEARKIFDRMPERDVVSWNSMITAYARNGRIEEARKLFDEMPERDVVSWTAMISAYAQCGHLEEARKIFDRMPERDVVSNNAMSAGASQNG
# Tests used:
# Assay in all cases: high-throughput RNA pulldown from lysate on Ni-NTA beads; HRP: 50 mM Tris pH 8, 150 mM NaCl, 1 mM beta-mercaptoethanol, 50 ug/ml BSA, 3 ug/ml yeast RNA, 0.5% heparin; ITC and FP: Tris pH 8, 200 mM KCl, 5% glycerol; MST: 50 mM Tris pH 8, 200 mM NaCl, 1 mM DTT, BSA, heparin, 0.05% Tween 20
# Conditions in all cases: tags: N-terminal His-eGFP
# [1] = biological target: T1, GFP-9S library array, motif 4 ND …
# [2] = biological target: T2, GFP-9S library array, motif 4 ND …
# [3] = biological target: T3, GFP-9S library array, motif 4 ND N98A
# [4] = biological target: T4, GFP-9S library array, motif 4 ND …
# [5] = biological target: T5, GFP-9S library array, motif 4 ND …
Binder,Kd ([1]; label: 5' Cy5),Kd ([2]; label: 5' Cy5),Kd ([3]; label: 5' Cy5),Kd ([4]; label: 5' Cy5),Kd ([5]; label: 5' Cy5),Kd ([1]; label: 5' IRDye 800CW),Kd ([2]; label: 5' IRDye 800CW),Kd ([3]; label: 5' IRDye 800CW),Kd ([4]; label: 5' IRDye 800CW),Kd ([5]; label: 5' IRDye 800CW)
AUUAGACGUGA (ssRNA) [Cy5-rpoA-G],37.1 nM,13.2 nM,156 nM,177 nM,120 nM,,,,,
AUUACACGUGA (ssRNA) [Cy5-rpoA],101 nM,258 nM,194 nM,176 nM,123 nM,,,,,
AUUAUACGUGA (ssRNA) [IR-rpoA-U],,,,,,38.7 nM,134 nM,50.8 nM,179 nM,182 nM
AUUAAACGUGA (ssRNA) [IR-rpoA-A],,,,,,61.3 nM,185 nM,223 nM,405 nM,311 nM
